Reference: patent publication US20070089183A1, “Size and/or growth engineering by modulation of the interaction between calmodulin, and brassinosteroid biosynthetic enzymes and orthologs therof” (Washington State University, priority 2005, published 2007)

What was measured:
[1] = test system: DWF1 function (sitosterol/isofucosterol levels); test: GC-MS sterol analysis of complemented plants; format: in vivo, Arabidopsis; settings: endogenous sitosterol/isofucosterol by GC-MS, six- to seven-week-old plants
Description: DWF1 catalyses the conversion of isofucosterol to sitosterol and 24-methylenecholesterol to campesterol^6,7. The endogenous levels of sitosterol/isofiicosterol or campesterol/24-methylenecholesterol in wild-type, dwarf and complemented plants were analysed using gas chromatography-mass spectrometry (GC-MS) to monitor the function of the complementing DWF1, DWF1(V531D), DWF1(KYR521-523DGD) and DWF1(Δ518-539) carried in cW, cM1, cM2 and cM3 plants, respectively.
Sterol analysis. Six- to seven-week-old greenhouse-grown plants were harvested and ground into a fine powder in liquid nitrogen. Aliquots of 100 mg ground material were sponified in 1 N NaOH, 70% ethanol at 70° C. for 2 h. The sterols were extracted three times with 500 μl hexane, and the combined extracts were dried and dissolved in 100 μl of methylene chloride. GC-MS analyses were conducted on an Agilent 6890 GC system with 5973N mass selective detector. A 1 μl aliquot of methylene chloride extract containing the underivatized sterols was loaded by cool on column injection on a Zebron (Phenomenex) ZB-5 column, 30 m×0.25 mm internal diameter with 0.25 μm film thickness. Chromatography was accomplished using He as the carrier gas at a flow rate of 0.7 ml min^−1. The column oven temperature was programmed to run from 40° C. to 300° C. increased at 20° C. min^−1, with a hold for 10 min at 300° C. Identification and quantification of sterols was accomplished by comparison to authentic standards based on the retention time, peak area and mass fragmentation pattern.

dwf1 null mutant = test: complementation of dwf1 null mutant, plant phenotype; format: in vivo, Arabidopsis; settings: for phenotype rescue of dwf1 mutant: 35S promoter-driven construct in homozygous dwf1 knockout
Excerpt: To circumvent the infertility problem associated with homozygous dwf1 mutants^6,7, a heterozygous dwf1 line (SALK—006932, ref. 23) was chosen for transformation. A T-DNA insert is shown in FIG. 6, panel A, and detailed characterizations confirmed that it is a heterozygous dwf1 null mutation line (FIG. 2a, b).
Specifically, heterozygous SALK—006932 plants were transformed with a 35S::DWF1 construct (FIG. 6, panel B). […] Using polymerase chain reaction (PCR) analysis, one dwarf and seven normal plants were identified that carried at least one copy of the 35S::DWF1 complementary construct and were homozygous knockout at the endogenous DWF1 loci. The dwarfism in the dwarf plant was confirmed to be caused by a failure in expression of the transgene (FIG. 2c, d). The overexpressed (numbers 1, 2, 3, 8) and equally expressed (numbers 5, 7) lines grew like the wild-type, confirming a previous report^6. […] At the adult stage, 7 out of the 8 complemented lines reached similar levels of height and fertility as that of wild-type plants (FIG. 3c).
Mutants. Three mutants were produced to disrupt the conserved secondary structure of the CaMBD of DWF1 (FIG. 6, Panel B): V531D (M1), aimed at disturbing the hydrophobic surface; KYR521-523DGD (M2, K521, Y522 and R523 are changed to D521, G522 and D523), aimed at changing the net surface charges; and Δ518-539 (M3), a total deletion of the CaMBD. […] A similar strategy was used to deliver the mutant dwf1 complimentary constructs (FIG. 6, Panel B) into the heterozygous dwf1 plants. Visual checks identified 18, 11 and 19 dwarf plants in the T1 population carrying 35S::DWF1(V531D), 35S::DWF1(KYR521-523DGD) and 35S::DWF1(Δ518-539) complimentary constructs, respectively. These plants were confirmed to carry at least one copy of the transgene and the homozygous knockout at the endogenous DWF1 loci.
To ensure a reliable comparison of the complementary effects of normal DWF1 and the three mutants, T2 plants with similar expression levels were compared (FIG. 3b-d). […] Seeds were produced in most of the slightly shorter siliques of cM1 plants (FIG. 3b, c). […] The dwarf phenotypes of cM1, cM2, cM3 and the dwf1 mutant were rescued by exogenous application of brassinolide (data not shown).

35S-CaM = test: 35S-CaM-binding assay; settings: purified recombinant protein covering amino acid 517 to the stop codon, 2 μg per lane
Description: Total proteins from E. coli expressing pScreen-1b (lane 1) or expressing pScreen-1b-517-561 (lane 2) were stained (left panel) or bound to ^35S-CaM in the presence of Ca^2+ (middle panel) or EGTA (right panel), a Ca^2+ chelator. […] Total proteins from plants expressing the Flag-tagged DWF1 (DWF1-Flag) or wild-type plants (WT) were incubated with antibodies against full-length human CaM1 (anti-CaM1), AtBET10 (anti-AtBET10) or non-immune serum (Non-im.); immunocomplexes were separated on SDS-PAGE and detected with anti-Flag M2 monoclonal antibody. […] Total proteins from E. coli expressing pET32b (lane 1), pET32b-1-349 (lane 2), pET32b-348-518 (lane 3), pScreen-1b (lane 4) or pScreen-1b-517-561 (lane 5) were stained (left) or were bound to ^35S-CaM (right). […] CaM and the peptide-CaM complex is indicated.
To confirm further the CaM-binding ability of DWF1, the positive clone from the library screening was expressed in Escherichia coli and tested for ^35S-CaM binding^15 in the presence of Ca^2+, EGTA, a Ca^2+ chelator, or Mg^2+. […] C-terminal Flag-tagged DWF1 overexpression lines of Arabidopsis were produced to study the DWF1-CAM interaction in vivo. Because of the dynamic nature of the interaction between DWF1 and Ca^2+/CaM, co-immunoprecipitation using a prior in vivo crosslinking strategy^16 was adapted to verify their interaction under physiological conditions.
The CaMBD is typically comprised of a stretch of 12-30 contiguous amino acids that contain a positive net charge and have a propensity to form an amphiphilic α-helix^4. […] A peptide corresponding to 518-539 was synthesized, and its CaM-binding ability was confirmed using PCM6 (ref. 17) in a gel mobility shift assay^15 (FIG. 1e).
Mutants. Three mutants were produced to disrupt the conserved secondary structure of the CaMBD of DWF1 (FIG. 6, Panel B): V531D (M1), aimed at disturbing the hydrophobic surface; KYR521-523DGD (M2, K521, Y522 and R523 are changed to D521, G522 and D523), aimed at changing the net surface charges; and Δ518-539 (M3), a total deletion of the CaMBD. […]

| Molecule | recovery of DWF1 function [1] | phenotype rescue of dwf1 mutant (dwf1 null mutant) | CaM-binding ability (35S-CaM) | height of flowering stems relative to the wild-type plant (dwf1 null mutant; T2 plants with similar expression levels) |
| --- | --- | --- | --- | --- |
| DWF1: wild-type Arabidopsis DWARF1 (At3g19820), expressed from 35S::DWF1 in cW plants (protein, listed as Arabidopsis thaliana) MSDLQTPLVRPKRKKTWVDYFVKFRWIIVIFIVLPFSATFYFLIYLGDMWSESKSFEKRQKEHDENVKKVIKRLKGRDASKDGLVCTARKPWIAVGMRNVDYKRARHFEVDLGEFRNILEINKEKMTARVEPLVNMGQISRATVPMNLSLAVVAELDDLTVGGLINGYGIEGSSHIYGLFADTVEAYEIVLAGGELVRATRDNEYSDLYYAIPWSQGTLGLLVAAEIRLIKVKEYMRLTYIPVKGDLQALAQGYIDSFAPKDGDKSKIPDFVEGMVYNPTEGVMMVGTYASKEEAKKKGNKINNVGWWFKPWFYQHAQTALKKGQFVEYIPTREYYHRHTRCLYWEGKLILPFGDQFWFRYLLGWLMPPKVSLLKATQGEAIRNYYHDMHVIQDMLVPLYKVGDALEWVHREMEVYPIWLCPHKLFKQPIKGQIYPEPGFEYENRQGDTEDAQMYTDVGVYYAPGCVLRGEEFDGSEAVRRMEKWLIENHGFQPQYAVSELDEKSFWRMFNGELYEECRKKYRAIGTFMSVYYKSKKGRKTEKEVREAEQAHLETAYAEAD | recovered to a level comparable to that in wild-type plants | completely rescue |  |  |
| KYR52-5231DGD: Arabidopsis thaliana DWF1 protein K521D, Y522G, R523D triple mutant (protein, listed as Arabidopsis thaliana) MSDLQTPLVRPKRKKTWVDYFVKFRWIIVIFIVLPFSATFYFLIYLGDMWSESKSFEKRQKEHDENVKKVIKRLKGRDASKDGLVCTARKPWIAVGMRNVDYKRARHFEVDLGEFRNILEINKEKMTARVEPLVNMGQISRATVPMNLSLAVVAELDDLTVGGLINGYGIEGSSHIYGLFADTVEAYEIVLAGGELVRATRDNEYSDLYYAIPWSQGTLGLLVAAEIRLIKVKEYMRLTYIPVKGDLQALAQGYIDSFAPKDGDKSKIPDFVEGMVYNPTEGVMMVGTYASKEEAKKKGNKINNVGWWFKPWFYQHAQTALKKGQFVEYIPTREYYHRHTRCLYWEGKLILPFGDQFWFRYLLGWLMPPKVSLLKATQGEAIRNYYHDMHVIQDMLVPLYKVGDALEWVHREMEVYPIWLCPHKLFKQPIKGQIYPEPGFEYENRQGDTEDAQMYTDVGVYYAPGCVLRGEEFDGSEAVRRMEKWLIENHGFQPQYAVSELDEKSFWRMFNGELYEECRKDGDAIGTFMSVYYKSKKGRKTEKEVREAEQAHLETAYAEAD | almost non-existent | very slight phenotypic rescue | undetectable |  |
| V531D: Arabidopsis thaliana DWF1 protein V531D mutant, disturbing the hydrophobic surface of the CaMBD (protein, listed as Arabidopsis thaliana) MSDLQTPLVRPKRKKTWVDYFVKFRWIIVIFIVLPFSATFYFLIYLGDMWSESKSFEKRQKEHDENVKKVIKRLKGRDASKDGLVCTARKPWIAVGMRNVDYKRARHFEVDLGEFRNILEINKEKMTARVEPLVNMGQISRATVPMNLSLAVVAELDDLTVGGLINGYGIEGSSHIYGLFADTVEAYEIVLAGGELVRATRDNEYSDLYYAIPWSQGTLGLLVAAEIRLIKVKEYMRLTYIPVKGDLQALAQGYIDSFAPKDGDKSKIPDFVEGMVYNPTEGVMMVGTYASKEEAKKKGNKINNVGWWFKPWFYQHAQTALKKGQFVEYIPTREYYHRHTRCLYWEGKLILPFGDQFWFRYLLGWLMPPKVSLLKATQGEAIRNYYHDMHVIQDMLVPLYKVGDALEWVHREMEVYPIWLCPHKLFKQPIKGQIYPEPGFEYENRQGDTEDAQMYTDVGVYYAPGCVLRGEEFDGSEAVRRMEKWLIENHGFQPQYAVSELDEKSFWRMFNGELYEECRKKYRAIGTFMSDYYKSKKGRKTEKEVREAEQAHLETAYAEAD | restored to some extent | some degree of phenotype rescue | markedly decreased | up to 40% |
| Δ518-539: Arabidopsis thaliana DWF1 protein Δ518-539 mutant, a total deletion of the CaMBD (protein, listed as Arabidopsis thaliana) MSDLQTPLVRPKRKKTWVDYFVKFRWIIVIFIVLPFSATFYFLIYLGDMWSESKSFEKRQKEHDENVKKVIKRLKGRDASKDGLVCTARKPWIAVGMRNVDYKRARHFEVDLGEFRNILEINKEKMTARVEPLVNMGQISRATVPMNLSLAVVAELDDLTVGGLINGYGIEGSSHIYGLFADTVEAYEIVLAGGELVRATRDNEYSDLYYAIPWSQGTLGLLVAAEIRLIKVKEYMRLTYIPVKGDLQALAQGYIDSFAPKDGDKSKIPDFVEGMVYNPTEGVMMVGTYASKEEAKKKGNKINNVGWWFKPWFYQHAQTALKKGQFVEYIPTREYYHRHTRCLYWEGKLILPFGDQFWFRYLLGWLMPPKVSLLKATQGEAIRNYYHDMHVIQDMLVPLYKVGDALEWVHREMEVYPIWLCPHKLFKQPIKGQIYPEPGFEYENRQGDTEDAQMYTDVGVYYAPGCVLRGEEFDGSEAVRRMEKWLIENHGFQPQYAVSELDEKSFWRMFNGELYEEKTEKEVREAEQAHLETAYAEAD | almost non-existent | grew like the uncomplemented dwf1 mutants | undetectable |  |
